From patent US11517591B2, “Immunogenic peptides specific to BCMA and TACI antigens” (Dana-Farber Cancer Institute, Inc., priority 2017, dated 2022)

Columns and labels:
tumor cells = test: Combination of peptide stimulation/vaccination with immune modulatory drugs, peptide-specific CTL activity; type: cell-based, human; settings: in combination with XBP1/CD138/CS1 peptide stimulation/vaccination
From the text: Even in patients with refractory MINI relapsing after allotransplantation, long-lasting responses have been achieved with the infusion of donor lymphocytes (DLI). These early encouraging results of DLI have provided the framework for evaluation of active-specific immunotherapy approaches to treat MM. […] The success of vaccination depends on selection of the appropriate patient population, targeting antigens expressed selectively on tumor, and utilizing combination approaches to effectively induce and maintain antigen-specific memory anti-tumor immune responses. […] Importantly, these effects were confined primarily to antigen-specific CD45RO^+ memory CTL, with the most robust increases in IFN-γ and granzyme B production and CD8^+ T cell proliferation in response to tumor cells observed mainly within the specific CM subset.

[1] = tested on: patients with smoldering MM (SMM); test: Clinical trials of XBP1/CD138/CS1 multipeptide vaccine in smoldering MM; type: in vivo, human; settings: multipeptide vaccine in combination with lenalidomide
From the text: Due to the encouraging preclinical results, the XBP1/CD138/CS1 multipeptide vaccine has been evaluated, alone and in combination with lenalidomide, in clinical trials to treat patients with smoldering MM (SMM), as well as in combination with anti-PD1 in clinical trials to treat patients with triple negative breast cancer. […] Although stable disease and responses have been observed in SMM, randomized trials are needed to assess whether time to progression from SMM to active disease can be prolonged by the peptide vaccination.

HLA-A2 molecule [2] = molecular target: T1, HLA-A2 molecule (Homo sapiens, UniProt P04439, D140Y/D185E/D98H/E176V/E277Q/G131W/G231S/I119V/I121R/I166T/I218V/L300P/L318F/N151K/N90K/P208A/P217A/Q86G/Q94H/R138H/R169H/T345S); test: HLA-A2 binding affinity assay on peptide-pulsed T2 cells (HLA-A2 up-regulation, flow cytometry MFI); settings: for HLA-A2 binding affinity of native BCMA peptides: Example 12, six native peptides; for HLA-A2 specificity (up-regulation of HLA-A2 on T2 cells, MFI): native peptides 0-200 μg/ml, overnight, Example 3, FIGS. 2, 3; for HLA-A2 binding affinity, heteroclitic vs native peptide: Example 4, FIGS. 4 and 5; for change in HLA-A2 binding affinity of heteroclitic BCMA peptide compared to native peptide: Example 12, n=3, p<0.05; for HLA-A2 affinity of heteroclitic TACI peptide compared to native peptide: Example 13, peptide doses 50 μg/ml and 100 μg/ml
T1 construct: endogenous in cells; host or cells: T2 cell line (human B and T cell hybrid), provided by Dr. J. Molldrem
Method: The listed BCMA peptides were evaluated for HLA-A2-specific binding capacity using the T2 cell line. In the assay, T2 cells were washed, resuspended in serum-free AIM-V medium to a final concentration of 1×10^6 cells/ml and transferred into wells of a 24-well tissue culture plate. The cells were pulsed with different concentrations of respective BCMA peptide (0-200 μg/ml) plus 3 μg/ml human β2-microglobulin (Sigma) and incubated at 37° C., 5% CO2 in humidified air. Following overnight incubation, the cells were washed, stained with mouse anti-human HLA-A2-FITC mAb for 15 minutes at 4° C., washed and analyzed using a FACSort™ flow cytometer with CellQuest™ v2.1 software (Becton Dickinson, San Jose, Calif.). […] Among the BCMA peptides evaluated, “#4. […] (FIG. 2).
(§1) T2 cells were pulsed overnight with various doses of peptide plus β2-microglobulin (3 μg/ml) (Sigma, St Louis, Mo.). Following overnight incubation, the cells were stained with HLA-A2-PE mAb and analyzed using a FACSCanto™ flow cytometer (BD). Peptide/HLA-A2 complex stability was measured on peptide loaded T2 cells at 0, 2, 4, 6 and 14 hours post-brefeldin A treatment by staining with HLA-A2-PE mAb and flow cytometric analysis.
as §1, with “concentrations” for “doses”, “The stability of peptide/HLA-A2” for “Peptide/HLA-A2”, “binding” for “stability”, “treatment followed” for “treatment”

HLA-A2 molecule [3] = molecular target: T1, HLA-A2 molecule; test: Peptide/HLA-A2 complex stability on peptide-loaded T2 cells post-brefeldin A; type: binding
Method: The native and heteroclitic BCMA and TACI peptides were examined for HLA-A2 binding stability using the T2 cell line. T2 cells were pulsed with the respective peptide. After overnight incubation, the cells were washed to remove unbound peptide; they were evaluated for binding affinity as shown above and stability as following. The cells were incubated with 10 μg/ml Brefeldin A (Sigma) at 37° C. and 5% CO2 for 1 hour to block cell surface expression of newly synthesized HLA-A2 molecules. Peptide/HLA-A2 binding stability was evaluated at 0, 2, 4, 6 and 18 hours post-Brefeldin A treatment. Following the incubation period, the cells were harvested, washed, stained with mouse anti-human HLA-A2-FITC mAb and analyzed by flow cytometry. […] Therefore, the Heteroclitic #4 BCMA72-80 (YLMFLLRKI (SEQ ID NO: 13)) and Heteroclitic #3. TACI154-162 (YLSADQVAL (SEQ ID NO: 16) peptides were selected for further evaluation of their immunogenic potential to generate MM-specific cytotoxic T cells (CTLs).
as §1
as §1, with “concentrations” for “doses”, “The stability of peptide/HLA-A2” for “Peptide/HLA-A2”, “binding” for “stability”, “treatment followed” for “treatment”

[4] = tested on: CD3+ T cells obtained from HLA-A2+ donors; test: Induction and phenotypic analysis of peptide-specific CTL by repeated peptide stimulation; type: cell-based, human
Method: The peptide-specific CTL were generated from different HLA-A2^+ normal donors for the evaluation of the functional activities targeting MM cell lines. To generate the peptide-specific CTL, mature dendritic cells (mDC) generated from the same donor were resuspended in serum-free AIM-V media and pulsed with 50 μg/ml of the Heteroclitic #4 BCMA72-80 (YLMFLLRKI (SEQ ID NO: 13)) peptide or “Heteroclitic #3 TACI154-162 (YLSADQVAL (SEQ ID NO: 16))” peptide, overnight at 37° C., 5% CO2 in humidified air. The peptide-pulsed mDC were washed, counted, irradiated at 10 Gy and used to prime CD3^+ T cells at a 1:20 antigen-presenting cells/peptide-to-CD3^+ T cell ratio in AIM-V media supplemented with 10% human AB serum. […] To maintain the T cells ex vivo, IL-2 (50 U/ml) was added to the cultures two days after the second stimulation. Control T cell cultures were maintained under the same culture conditions in the presence of IL-2 (50 U/ml), but without peptide stimulation. Phenotype of the resulting CTL was evaluated one week after each cycle of peptide stimulation. […] The BCMA peptide-specific CTL cultures contained a higher percentage of CD8^+ T cells (˜80%) upon 4 cycle of peptide stimulation compared to non-peptide stimulated control T cells (˜20%) (FIGS. 8A-8C).
Antigen-specific CTL can be phenotypically identified as activated/memory T cells from naïve T cells by their expression of distinct cell surface antigens. The phenotype of the BCMA-CTL were examined as potential effector cells by analyzing the phenotype of naïve and memory cells. BCMA peptide-specific CTL were generated by repeated stimulation of HLA-A2^+ normal donor's CD3^+ T cells weekly with antigen-presenting cells pulsed with 50 μg/ml heteroclitic BCMA72-80 (YLMFLLRKI (SEQ ID NO: 13)). One week after each peptide stimulation, the resulting CTL were evaluated for their phenotypic profile by flow cytometry.
BCMA peptide-specific CTL (BCMA-CTL) were generated ex vivo by repeated stimulation of CD3^+ T cells obtained from HLA-A2^+ donors with peptide-pulsed antigen-presenting cells (APC). In brief, peptide (50 μg/ml)-pulsed APC were irradiated (10 Gy) and used to stimulate T cells at a 1 APC/peptide: 20 T cell ratio. The T cell cultures were restimulated every 7 days and maintained in AIM-V medium supplemented with 10% human AB serum (BioWhittaker) in the presence of IL-2 (50 units/ml).
Phenotypic characterization was performed on BCMA-CTL after staining with Live/Dead Aqua stain kit and fluorochrome conjugated anti-human mAbs and Tetramer-PE. Alternatively, the MM and breast cancer cell lines were stained with fluorochrome-conjugated BCMA or HLA-A2 mAb. After staining, the cells were washed, fixed in 2% paraformaldehyde, and analyzed by flow cytometry.
TACI peptide-specific CTL (TACI-CTL) were generated ex vivo by repeated stimulation of enriched CD3^+ T cells obtained from HLA-A2^+ donors with peptide-pulsed antigen-presenting cells (APC). In brief, peptide (50 μg/ml)-pulsed APC were irradiated (10 Gy) and used to stimulate T cells at a 1:20 APC/peptide-to-T cell ratio. The T cell cultures were restimulated every 7 days and maintained in AIM-V medium supplemented with 10% human AB serum (BioWhittaker) in the presence of IL-2 (50 units/ml).
Phenotypic characterization was performed on the MM target cells to conform TACI expression. Phenotypic characterization was performed on the TACI-CTL after staining with Live/Dead Aqua stain kit and fluorochrome conjugated anti-human mAbs. After staining, the cells were washed, fixed in 2% paraformaldehyde, and analyzed by flow cytometry.

[5] = after 3 cycles of peptide stimulation
[6] = after 4 cycles of peptide stimulation

**Q.** Which “peptides-specific CTL activities against tumor cells” value (tumor cells) does the source give for `O=C(CCCCCCNC(=O)c1cnc(N(c2ccccc2)c2ccccc2Cl)nc1)NO` [ACY241] here?
**A.** enhanced the peptides-specific CTL activities against tumor cells

**Q.** `Nc1cccc2c1CN(C1CCC(=O)NC1=O)C2=O` (stereo not drawn) [lenalidomide] was tested. Which “peptides-specific CTL activities against tumor cells” value (tumor cells) did it give?
**A.** enhanced the peptides-specific CTL activities against tumor cells

**Q.** What about the “CD8+ T cells with tetramer-positivity and IFN-γ production” value [1] of the same compound?
**A.** triggered higher mean fold increases in CD8^+ T cells with tetramer-positivity and IFN-γ production

**Q.** Which “HLA-A2 binding affinity of native BCMA peptides” value (HLA-A2 molecule [2]) does the source give for “AILWTCLGL [BCMA54-62 (AILWTCLGL), native BCMA peptide]” here?
**A.** highest HLA-A2 binding affinity in a dose-dependent manner

**Q.** What about the “HLA-A2 specificity (up-regulation of HLA-A2 on T2 cells, MFI)” value (HLA-A2 molecule [2]) of the same compound?
**A.** second highest level of the specificity

**Q.** With “SQNEYFDSL [BCMA9-17 (SQNEYFDSL), native BCMA peptide]” as the compound, how does the “HLA-A2 binding affinity of native BCMA peptides” value (HLA-A2 molecule [2]) read?
**A.** non-HLA-A2 specific

**Q.** “TLGLCLCAV [TACI166-174 (TLGLCLCAV), native TACI peptide]” was tested. Which “HLA-A2 affinity of native TACI peptides” value (HLA-A2 molecule [2]; Example 13, six native peptides) did it give?
**A.** highest level of affinity

**Q.** And the “HLA-A2 specificity (up-regulation of HLA-A2 on T2 cells, MFI)” value (HLA-A2 molecule [2])?
**A.** highest level

**Q.** Which results are given for “VLMFLLRKI [BCMA72-80 (VLMFLLRKI), native BCMA peptide]”?
**A.** HLA-A2 binding affinity of native BCMA peptides (HLA-A2 molecule [2]): highest HLA-A2 binding affinity in a dose-dependent manner; HLA-A2 specificity (up-regulation of HLA-A2 on T2 cells, MFI) (HLA-A2 molecule [2]): highest level of HLA-A2 specificity

**Q.** “YILWTCLGL [heteroclitic hBCMA54-62, heteroclitic BCMA peptide]” was tested. Which “HLA-A2 binding affinity, heteroclitic vs native peptide” value (HLA-A2 molecule [2]) did it give?
**A.** increased from their native peptide

**Q.** What about the “change in HLA-A2 binding affinity of heteroclitic BCMA peptide compared to native peptide” value (HLA-A2 molecule [2]) of the same compound?
**A.** highest increase in HLA-A2 binding affinity

**Q.** And the “HLA-A2 stability of heteroclitic vs native BCMA peptide” value (HLA-A2 molecule [3]; Example 12)?
**A.** further enhanced

**Q.** With “YLGLCLCAV [heteroclitic TACI166-174, heteroclitic TACI peptide]” as the compound, how does the “HLA-A2 affinity of heteroclitic TACI peptide compared to native peptide” value (from here on “HLA-A2 affinity … compared to native peptide”) (HLA-A2 molecule [2]) read?
**A.** no significant improvement in HLA-A2 affinity

**Q.** How did the “HLA-A2 binding affinity, heteroclitic vs native peptide” value (HLA-A2 molecule [2]) turn out when “YLSADQVAL [heteroclitic TACI154-162, heteroclitic TACI peptide]” was run?
**A.** increased from their native peptide

**Q.** And the “HLA-A2 affinity … compared to native peptide” value (HLA-A2 molecule [2])?
**A.** greatly enhanced affinity from its native form

**Q.** What about the “HLA-A2 binding stability, heteroclitic vs native peptide” value (HLA-A2 molecule [3]; 50 ug/ml, 0, 2, 4, 6 and 18 hours post-Brefeldin A, Example 4, FIGS. 6 and 7) of the same compound?
**A.** significant improvement in their HLA-A2 affinity at all the time points evaluated

**Q.** And the “HLA-A2 binding affinity (time=0) and stability compared to native peptide” value (HLA-A2 molecule [3]; TACI peptides 50 μg/ml, 2, 4, 6 and 18 hours)?
**A.** highest HLA-A2 binding affinity (time=0) and stability (2, 4, 6 and 18 hours)

**Q.** What about the “CM CD8+ T cells” value [4, 5] of the same compound?
**A.** 47.8%

**Q.** And the “EM CD8+ T cells” value [4, 5]?
**A.** 52.4%

**Q.** And the “Naïve CD8+ T cells” value [4, 5]?
**A.** 2.2%

**Q.** What about the “CM CD8+ T cells” value [4, 6] of the same compound?
**A.** 24.4%

**Q.** And the “EM CD8+ T cells” value [4, 6]?
**A.** 74.1%

**Q.** What about the “Naïve CD8+ T cells” value [4, 6] of the same compound?
**A.** 0.72%

**Q.** And the “frequency of effector memory (CD45RO+/CCR7-) CD3+CD8+ T cells” value [4, 6]?
**A.** increased

**Q.** And the “CM CD8+ T cells” value ([4]; after 5 cycles of stimulation)?
**A.** 7.36%

**Q.** And the “EM CD8+ T cells” value ([4]; after 5 cycles of stimulation)?
**A.** 69.7%

**Q.** And the “Naïve CD8+ T cells” value ([4]; after 5 cycles of stimulation)?
**A.** 0.57%

**Q.** For “YLVAVACFL [heteroclitic TACI178-186, heteroclitic TACI peptide]”, which “HLA-A2 affinity … compared to native peptide” value (HLA-A2 molecule [2]) is on record?
**A.** no significant improvement in HLA-A2 affinity

**Q.** With “YQNEYFDSL [heteroclite BCMA9-17, heteroclitic BCMA peptide]” as the compound, how does the “change in HLA-A2 binding affinity of heteroclitic BCMA peptide compared to native peptide” value (HLA-A2 molecule [2]) read?
**A.** did not alter its HLA-A2 affinity status
